The numbers were not newly measured in PMC7460564, which cites them from elsewhere.

pKd: −log10 of the molar value. Read-outs that look alike come from different tables or passages of the source.

Data set [1] addresses EGFR ECD (Homo sapiens) (UniProt P00533).
The next data set has as its target HER2 (Homo sapiens) (UniProt P04626).
For data set [2], the target named is EGFR ECD (Homo sapiens) (UniProt P00533). The source holds these as a separate data set.
Another data set has as its target EGFR (Homo sapiens) (UniProt P00533).

As to EGF (from UniProt P01133), in the data set with EGFR ECD (Homo sapiens) [1], the pKd was 7.82.
As for PEPD (prolidase) (from UniProt P12955), the pKd with HER2 (Homo sapiens) was 8.14; with EGFR ECD (Homo sapiens) [2] it was 5.28; with EGFR (Homo sapiens), 7.75.

For orientation: pKd means the negative decadic logarithm of the Kd, by convention in mol/L.
